Source: doi:10.1101/473132

Biological target: H3K9me3 mononucleosome with one disulfide bridge between H3 I62C and H4 A33C (oxidized) (X. laevis)
Assay: fluorescence polarisation

Swi6 (S. pombe HP1 protein), sequence (P40381 whole entry): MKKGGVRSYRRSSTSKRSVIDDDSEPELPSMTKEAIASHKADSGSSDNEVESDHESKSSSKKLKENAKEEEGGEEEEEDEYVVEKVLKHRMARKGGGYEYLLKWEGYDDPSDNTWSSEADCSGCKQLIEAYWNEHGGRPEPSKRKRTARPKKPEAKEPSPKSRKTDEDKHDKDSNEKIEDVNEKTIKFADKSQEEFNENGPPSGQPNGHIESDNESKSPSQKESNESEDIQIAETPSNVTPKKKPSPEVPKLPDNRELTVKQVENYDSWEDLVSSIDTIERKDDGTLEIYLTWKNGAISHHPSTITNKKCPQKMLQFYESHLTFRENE

Question: With “Swi6 (S. pombe HP1 protein) (from UniProt P40381 1-328) (natural protein)” as the substance, how does the Kd read?
Answer: 300 nM
